Test results taken from US20260193366A1 (APOGEE THERAPEUTICS, published 2026).

T1: hIL-4Rα on cells (human, UniProt P24394 26-825)
T1 sequence: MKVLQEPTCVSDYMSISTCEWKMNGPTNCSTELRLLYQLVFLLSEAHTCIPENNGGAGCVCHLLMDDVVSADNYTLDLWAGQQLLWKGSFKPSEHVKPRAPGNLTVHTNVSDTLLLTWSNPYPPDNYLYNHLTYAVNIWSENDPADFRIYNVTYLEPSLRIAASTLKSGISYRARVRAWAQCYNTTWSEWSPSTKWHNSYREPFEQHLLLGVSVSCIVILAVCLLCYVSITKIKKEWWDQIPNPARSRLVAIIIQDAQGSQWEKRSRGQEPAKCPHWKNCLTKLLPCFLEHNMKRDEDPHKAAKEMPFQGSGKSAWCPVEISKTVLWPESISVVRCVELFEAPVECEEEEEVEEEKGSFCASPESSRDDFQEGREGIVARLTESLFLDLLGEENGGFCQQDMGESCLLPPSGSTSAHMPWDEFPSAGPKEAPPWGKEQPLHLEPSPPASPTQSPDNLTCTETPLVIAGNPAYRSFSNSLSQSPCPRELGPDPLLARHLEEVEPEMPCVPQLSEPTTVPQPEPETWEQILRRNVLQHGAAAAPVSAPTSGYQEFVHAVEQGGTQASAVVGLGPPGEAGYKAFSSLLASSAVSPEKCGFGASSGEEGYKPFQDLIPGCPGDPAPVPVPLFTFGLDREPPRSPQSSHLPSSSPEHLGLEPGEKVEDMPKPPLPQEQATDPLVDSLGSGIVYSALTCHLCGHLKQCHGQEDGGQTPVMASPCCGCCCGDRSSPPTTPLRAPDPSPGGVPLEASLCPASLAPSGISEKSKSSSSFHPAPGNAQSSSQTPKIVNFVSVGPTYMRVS

T2: human IL-4Rα (human, UniProt P24394 26-232)
T2 construct: also called Hu IL-4Rα; hIL-4Rα
T2 sequence: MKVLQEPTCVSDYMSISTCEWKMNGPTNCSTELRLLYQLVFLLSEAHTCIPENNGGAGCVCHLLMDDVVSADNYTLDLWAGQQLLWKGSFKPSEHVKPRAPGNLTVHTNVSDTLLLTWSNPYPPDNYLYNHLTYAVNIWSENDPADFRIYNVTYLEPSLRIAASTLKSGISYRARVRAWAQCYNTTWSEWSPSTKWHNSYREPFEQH

T3: cynomolgus monkey IL-4Rα (cynomolgus monkey, UniProt P24394 26-231 (human entry), limits assumed)
T3 construct: also called Cyno IL-4Rα; cyIL-4Rα
T3 chain: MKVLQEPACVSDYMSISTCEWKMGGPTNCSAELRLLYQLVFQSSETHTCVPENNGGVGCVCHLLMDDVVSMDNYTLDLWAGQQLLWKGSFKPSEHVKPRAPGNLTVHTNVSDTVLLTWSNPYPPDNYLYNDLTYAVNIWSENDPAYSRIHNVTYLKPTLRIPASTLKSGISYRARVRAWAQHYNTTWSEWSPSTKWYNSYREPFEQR


How the values were obtained:
[1] = biological target: T1, hIL-4Rα on cells; assay: cell-based or functional assay
[2] = biological target: T1, hIL-4Rα on cells; assay: FACS on HEK293 cells, competitor biotin-hIL-4;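 note: HEK293 cells stably co-expressing hIL-13Rα and hIL-4Rα, stained for 1 h at 4 °C, read-out as mean fluorescence intensity by flow cytometry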
[3] = biological target: T1, hIL-4Rα on cells; assay: FACS on HEK293 cells, competitor biotin-hIL-13;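 note: stably transduced cells co-expressing both receptor chains, stained cold, with cell-bound signal read as mean fluorescence intensity by flow cytometry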
Procedure: Briefly, HEK293 previously transduced to stably express both hIL-13Rα and hIL-4Rα were cultured and harvested. Cells were seeded at 200,000 cells in 100 uL per well. Cells were washed and the supernatant discarded. […] The cells were stained in this mixture at 4° C. for 1 hour. […] Cells were incubated 4° C. for 1 hour, protected from light. Cells were then washed and the MFI of cells in each well were recorded by FACS using a BD FACSCanto II. Subsequent data were analyzed using GraphPad Prism.

[4] = biological target: T1, hIL-4Rα on cells; assay: cell-based or functional assay; remark: listed apart in the source
[5] = biological target: T1, hIL-4Rα on cells; assay: cell-based or functional assay; remark: listed apart in the source
[6] = biological target: T2, human IL-4Rα; assay: SPR, Carterra LSA;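 note: antibodies captured on an anti-human Fc sensor chip, antigen injected at several concentrations, association and dissociation rates fitted with a 1:1 Langmuir model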
[7] = biological target: T3, cynomolgus monkey IL-4Rα; assay: SPR, Carterra LSA;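 note: antibodies captured on an anti-human Fc sensor chip, antigen injected at several concentrations, association and dissociation rates fitted with a 1:1 Langmuir model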

Binder | Relative Inhibition of IL-4 induced TF-1 Proliferation IC50 [1] | Relative Inhibition of IL-13 induced TF-1 Proliferation IC50 [1] | Relative Blockade of IL-4 Binding IC50 [2] | Relative Blockade of IL-13 Binding IC50 [3] | Relative Inhibition of IL-4 induced TARC IC50 [4] | Relative Inhibition of IL-13 induced TARC IC50 [4] | Relative Inhibition of IL-4 induced pSTAT6 IC50 [5] | Relative Inhibition of IL-13 induced pSTAT6 IC50 [5] | KD Relative to Dupilumab [6] | Kd [6] | KD Relative to Dupilumab [7] | Kd [7]
Construct 29 (mAb437) (antibody, IgG4, V domains shown, VH/VL only) VH: EVQLVESGGGLEQPGGSLRLSCAGSGFTFRDFAMTWVRQAPGKGLEWVSSISGSGGNIYYADSVKGRFTISRDNSKNTLYLQMNSLRAEDTAVYYCAKDRLSVTVRPRYYGLDVWGQGTTVTVSS VL: DIVMTQSPLSLPVTPGEPASISCTSSQSLLYSIGYNYVDWYLQKSGQSPQLLIYLGNKRASGVPDRFSGSGSGTDFTLKISRVEAEDVGFYYCMQSLTSPYTFGQGTKLEIK | 0.486 relative to dupilumab | 0.851 relative to dupilumab | 0.887 relative to dupilumab | 0.695 relative to dupilumab | 0.693 relative to dupilumab | 1.39 relative to dupilumab | 0.63 relative to dupilumab | 0.624 relative to dupilumab | 0.72 | 0.0081 nM | 0.02 | 15.7 nM
Construct 4 (mAb413) (antibody, IgG4, V domains shown, VH/VL only) VH: EVQLVESGGGLEQPGGSLRLSCAGSGFTFRDFAMTWVRQAPGKGLEWVSSISGSGGNIYYADSVKGRFTISRDNSKNTLYLQMNSLRAEDTAVYYCAKDRLSKTIRPRYYGLDVWGQGTTVTVSS VL: DIVMTQSPLSLPVTPGEPASISCTASQSLLYSIGYNYVDWYLQKSGQSPQLLIYLGNNRATGVPDRFSGSGSGTDFTLKISRVEAEDVGFYYCMQALTTPYTFGQGTKLEIK | 0.442 relative to dupilumab | 1.11 relative to dupilumab | 1.01 relative to dupilumab | 0.989 relative to dupilumab | 0.266 relative to dupilumab | 0.614 relative to dupilumab | 0.493 relative to dupilumab | 0.862 relative to dupilumab | 1.24 | 0.014 nM | 0.2 | 128 nM
Construct 6 (mAb415) (antibody, IgG4, V domains shown, VH/VL only) VH: EVQLVESGGGLEQPGGSLRLSCAGSGFTFRDFAMTWVRQAPGKGLEWVSSISGSGDNIYYADSVKGRFTISRDNSKNTLYLQMNSLRAEDTAVYYCAKDRLSVTVRPRYYGLDVWGQGTTVTVSS VL: DIVMTQSPLSLPVTPGEPASISCRSSQGLLYSIGYNYVDWYLQKSGQSPQLLIYLGNKRASGVPDRFSGSGSGTDFTLKISRVEAEDVGFYYCMQSLQTPYTFGQGTKLEIK | 0.92 relative to dupilumab | 2.06 relative to dupilumab | 1.16 relative to dupilumab | 0.99 relative to dupilumab | 0.879 relative to dupilumab | 1.44 relative to dupilumab | 0.729 relative to dupilumab | 1.35 relative to dupilumab | 1.02 | 0.0115 nM | 0.09 | 59.5 nM
Construct 1 (mAb410) (antibody, IgG4, V domains shown, VH/VL only) VH: EVQLVESGGGLEQPGGSLRLSCAGSGFTFRDFAMTWVRQAPGKGLEWVSSISGSGGNIYYADSVKGRFTISRDNSKNTLYLQMNSLRAEDTAVYYCAKDRLSKTIRPRYYGLDVWGQGTTVTVSS VL: DIVMTQSPLSLPVTPGEPASISCRSSQSVLYSIGYNYVDWYLQKSGQSPQLLIYLGSKRASGVPDRFSGSGSGTDFTLKISRVEAEDVGFYYCMQSLDTPYTFGQGTKLEIK | 0.414 relative to dupilumab | 1.37 relative to dupilumab | 1.1 relative to dupilumab | 0.968 relative to dupilumab | 0.427 relative to dupilumab | 0.485 relative to dupilumab | 0.592 relative to dupilumab | 0.671 relative to dupilumab | 1.25 | 0.0141 nM | 0.17 | 107 nM
Construct 5 (mAb414) (antibody, IgG4, V domains shown, VH/VL only) VH: EVQLVESGGGLEQPGGSLRLSCAGSGFTFRDFAMTWVRQAPGKGLEWVSSISGSGDNIYYADSVKGRFTISRDNSKNTLYLQMNSLRAEDTAVYYCAKDRVSITIRPRYYGLDVWGQGTTVTVSS VL: DIVMTQSPLSLPVTPGEPASISCRSSQSLLYSIGKNYVDWYLQKSGQSPQLLIYLGNKRASGVPDRFSGSGSGTDFTLKISRVEAEDVGFYYCMQSLQTPYVFGQGTKLEIK | 0.521 relative to dupilumab | 0.94 relative to dupilumab | 1.01 relative to dupilumab | 1 relative to dupilumab | 0.552 relative to dupilumab | 0.897 relative to dupilumab | 0.78 relative to dupilumab | 1.07 relative to dupilumab | 2.1 | 0.0238 nM | 0.18 | 116 nM
Construct 3 (mAb412) (antibody, IgG4, V domains shown, VH/VL only) VH: EVQLVESGGGLEQPGGSLRLSCAGSGFTFRDFAMTWVRQAPGKGLEWVSSISGSGSSTYYADSVKGRFTISRDNSKNTLYLQMNSLRAEDTAVYYCAKDRLSITVRPRYYGLDVWGQGTTVTVSS VL: DIVMTQSPLSLPVTPGEPASISCRSSQSLLYSIGYNYVDWYLQKSGQSPQLLIYLGNKRASGVPDRFSGSGSGTDFTLKISRVEAEDVGFYYCMQALTTPYTFGQGTKLEIK | 0.514 relative to dupilumab | 0.683 relative to dupilumab | 0.877 relative to dupilumab | 0.949 relative to dupilumab | 0.521 relative to dupilumab | 0.506 relative to dupilumab | 0.767 relative to dupilumab | 0.66 relative to dupilumab | 0.76 | 0.00856 nM | 0.14 | 85.4 nM
Construct 2 (mAb411) (antibody, IgG4, V domains shown, VH/VL only) VH: EVQLVESGGGLEQPGGSLRLSCAGSGFTFRDFAMTWVRQAPGKGLEWVSSISGSGGNIYYADSVKGRFTISRDNSKNTLYLQMNSLRAEDTAVYYCAKDRLSKTIRPRYYGLDVWGQGTTVTVSS VL: DIVMTQSPLSLPVTPGEPASISCTASQSLLYSIGYNYVDWYLQKSGQSPQLLIYLGSKRASGVPDRFSGSGSGTDFTLKISRVEAEDVGFYYCMQALTTPYTFGQGTKLEIK | 0.376 relative to dupilumab | 0.87 relative to dupilumab | 0.799 relative to dupilumab | 0.942 relative to dupilumab | 0.267 relative to dupilumab | 0.314 relative to dupilumab | 0.507 relative to dupilumab | 0.685 relative to dupilumab | 1.61 | 0.0181 nM | 0.1 | 64.2 nM
